The record followed here is article PMC6981877, “Conformational Plasticity of the Active Site Entrance in E. coli Aspartate Transcarbamoylase and Its Implication in Feedback Regulation” (International Journal of Molecular Sciences, 2020).

This data set deals with the molecule itself. As to the kind of experiment: crystal structure; native wild-type apo holoenzyme extracted from E. coli BL21(DE3); hanging drop, 0.1 M MES pH 6.0, 10% glycerol, 10% PEG 8000; space group R32, one catalytic and one regulatory chain in the asymmetric unit; 2.06 Å.

B1: E. coli aspartate transcarbamoylase (ATCase) regulatory chain (natural protein, E. coli (endogenous in BL21(DE3)), UniProt P0A7F3 1-153, looked up)
chain: MTHDNKLQVEAIKRGTVIDHIPAQIGFKLLSLFKLTETDQRITIGLNLPSGEMGRKDLIKIENTFLSEDQVDQLALYAPQATVNRIDNYEVVGKSRPSLPERIDNVLVCPNSNCISHAEPVSSSFAVRKRANDIALKCKYCEKEFSHNVVLAN
notes: Aspartate transcarbamoylase regulatory chain, E. coli, wild type, native; also called regulatory subunit; source: endogenous, extracted from E. coli BL21(DE3), purified as native holoenzyme (Ni-NTA, HiLoad Superdex 200)
As for B1, the binding result is recorded as “binds”.

B2: E. coli aspartate transcarbamoylase (ATCase) catalytic chain (enzyme, E. coli (endogenous in BL21(DE3)), UniProt P0A786 1-311, looked up)
chain: MANPLYQKHIISINDLSRDDLNLVLATAAKLKANPQPELLKHKVIASCFFEASTRTRLSFETSMHRLGASVVGFSDSANTSLGKKGETLADTISVISTYVDAIVMRHPQEGAARLATEFSGNVPVLNAGDGSNQHPTQTLLDLFTIQETQGRLDNLHVAMVGDLKYGRTVHSLTQALAKFDGNRFYFIAPDALAMPQYILDMLDEKGIAWSLHSSIEEVMAEVDILYMTRVQKERLDPSEYANVKAQFVLRASDLHNAKANMKVLHPLPRVDEIATDVDKTPHAWYFQQAGNGIFARQALLALVLNRDLVL
notes: Aspartate transcarbamoylase catalytic chain, E. coli, wild type, native form lacking the His tag; Crystallised as part of the native holoenzyme; also called catalytic subunit; source: endogenous, extracted from E. coli BL21(DE3), purified as native holoenzyme (Ni-NTA, HiLoad Superdex 200)
Turning to B2, the binding result is given as “binds”.
